Values belong to the binder of their own block, whether it stands above or below them.
Target: T1, HER2 on SK-BR-3 human breast cancer cells (human, UniProt P04626 23-1255)
T1 construct: whole, on cells; also called SK-BR-3 cells; whole cell (SK-BR-3)
Test: flow cytometry on SK-BR-3 cells, human IgG1, anti-human IgG-FITC detection
Method: Following washes in PBS containing 1% BSA, secondary antibody anti-human IgG-FITC (Sigma) was added for 30 min on ice. Fluorescence intensity of the live cell population was recorded using FACSCalibur (BD Biosciences) and analyzed using FlowJo 7.6.5 software (Tree Star).

- EC50: 0.827 µg/mL
B1: 4D5 as human IgG1, VH 30D (30D/WT) (antibody, V domains shown)
VH: QVQLVESGGGLVQPGGSLRLSCAASGFNIDDTYIHWVRQAPGKGLEWVARIYPTNGYTRYADSVKGRFTISADTSKNTAYLQMNSLRAEDTAVYYCSRWGGDGFYAMDVWGQGTLVTVSS
VL: not shown

- EC50: 0.978 µg/mL
B2: 4D5 as human IgG1, VH 30D and VL 52D (30D/52D) (antibody, V domains shown)
VH: B1 VH
VL: QIQMTQSPSSLSASVGDRVTITCRASQDVNTAVAWYQQKPGKAPKLLIYSADFLESGVPSRFSGSRSGTDFTLTISSLQPEDFATYYCQQHYTTPPTFGQGTKVEIK
